In US20080044421A1:

Biological target: CD20 (human) (UniProt P11836)
Assay: FACS on Ramos, Daudi, Raji and BJAB B lymphoma cells; range over four cell lines

UniProt P11836, sequence (P11836 whole entry): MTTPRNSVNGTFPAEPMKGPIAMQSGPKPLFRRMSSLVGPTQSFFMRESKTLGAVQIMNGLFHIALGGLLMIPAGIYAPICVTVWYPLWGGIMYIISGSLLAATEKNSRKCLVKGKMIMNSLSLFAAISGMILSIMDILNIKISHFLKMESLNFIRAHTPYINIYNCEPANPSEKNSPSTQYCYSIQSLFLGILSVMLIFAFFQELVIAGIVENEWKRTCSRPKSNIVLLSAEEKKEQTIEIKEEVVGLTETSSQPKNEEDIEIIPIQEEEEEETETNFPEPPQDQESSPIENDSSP

mean fluorescence shift: 5 to 15 units
Substance: RITUXAN (rituximab), monoclonal antibody specific for CD20
